We go through 31 sequences from the supplement of paper PMC9170038.

The subject of this data set is MS2 coat protein. The experiment in a line: apparent KD of MS2 coat protein; designed switch direction (-1 OFF switch, 1 ON switch): -1; higher = weaker reporter binding. The method, boiled down: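 Designed RNA switches were transcribed on Illumina chips by stalled E. coli RNA polymerase and titrated with SNAP-549-labelled MS2 coat protein from 0.7 or 1.5 nM, doubling to 3 µM. Step length ran from 0.8–1.5 h at the lowest concentration to 10–20 min at the highest. The apparent KD is the median over clusters for each design, from curve-fitted normalised cluster fluorescence.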

The mark [1] stands for this setting: Eterna round: R95, input ligand: FMN 200 uM.
The mark [2] stands for this setting: Eterna round: R95, input ligand: microRNA oligo, concentration not stated.
Setting [3] is: Eterna round: R95, input ligand: none.
Setting [4] is: input ligand: microRNA oligo, concentration not stated.

On to “AAUUACAAGCAAAGAUCCUACAUGAGGAUCACCCAUGUGCUCGUCUUAUAAAGUACUAUCACGAAAGUGAUAGUACA [Mat - Sensor v3 - turn-off var 1 - Eli Mod - D76] (puzzle: Sensor v3, turn-off variant 1)”, for which the “apparent KD of MS2 coat protein” value runs as follows: under setting [1], 222 nM; under setting [2], 13.5 nM; under setting [3], 232 nM.
In the case of “CUAAAUCAUGUAGGAUAUGCGUGGCGAAGCUAUGCAGAAGGACAUGAGGAUCACCCAUGUCUUUCCGUCUGCGUACAGACGGAA [JL ENG1 1.19] (Eterna round: R96, puzzle: Exclusion NG 1)”, the “apparent KD of MS2 coat protein” value was found to be 303 nM (input ligand: FMN 200 uM), 17.3 nM under setting [4] and 23.5 nM (input ligand: none).
In the case of “CCUCCACAUGAGGAUCACCCAUGUCAGGAUAUCGUGUGCGCGUUUUCGGUCUUUCGCGCGAGAAGGGACGUCUG (puzzle: Exclusion 1)”, the “apparent KD of MS2 coat protein” value under setting [2] is 24 nM.
On to “GUCGCCAGUGUCAGGAUAUGAUGGCCUCGACGCCGUUAGAAGGGACAUGAGGAUCACCCAUGUAACAAGCGACG [Eternabot (Original) Solution 42] (Eterna round: R97, puzzle: Brourd's mod of Exclusion 4)”, for which the “apparent KD of MS2 coat protein” value reads like this: (input ligand: FMN 200 uM) 31.3 nM; (input ligand: none) 27.8 nM.
On to “AUUGUUGUUGUGAGGAUAUCGUUGAUUUUUUGAAACGAGAAGGCACAUGAGGAUCACCCAUGUUAGUUGUUGGU [JR_BMOE4_Sub057] (puzzle: Brourd's mod of Exclusion 4)”, for which, under setting [2], the “apparent KD of MS2 coat protein” value amounted to 77.3 nM.
“AUAACGUGGGCGUCCCACGGCAAGCUUUUUGCUCGUUUGACAUGAGGAUCACCCAUGUAGCUGCGGGAUCCCUAUGA [Anatsobe] (puzzle: Sensor v3, turn-off variant 2)”: the “apparent KD of MS2 coat protein” value was found to be 17.6 nM under setting [1], 22.5 nM under setting [2] and 15.2 nM under setting [3].
For the sequence “CUGGAGUCAGGAUAUGACGCAGUCCGCCCAAGUGGCGGAAAUCAGAAGGGACUUGAGGAUCACCCAAGUAAAAG [Resorama] (Eterna round: R97, puzzle: Exclusion 4)”, the “apparent KD of MS2 coat protein” value (input ligand: FMN 200 uM) came to 26.8 nM and the “apparent KD of MS2 coat protein” value (input ligand: none) was 29.8 nM.
With “UACAUGAGGAUCACCCAUGUUUUGUCGUGUAUGGUAUUUAUCUAGGAUAUCAAUCUAUUUAUGUAUGAGAAGGAGAAUAUUAAU [JMF's solution 55] (Eterna round: R96, puzzle: Exclusion NG 3)”, the “apparent KD of MS2 coat protein” value came to 42.3 nM (input ligand: FMN 200 uM), 28.9 nM under setting [4] and 41.1 nM (input ligand: none).
Take “AGCCACAGAGGAUAUACAUACAUCCAGUAGUUGAGAAGACUACAUGAGGAUCACCCAUGUAGAAGGCUGUGGCA [Omei Ex2 BD B3] (Eterna round: R97, puzzle: Exclusion 2)”: the “apparent KD of MS2 coat protein” value came to 95.5 nM (input ligand: FMN 200 uM) and 395 nM (input ligand: none).
Take “AAACAGCAAGGAUAUACGGGCUGUGCUUUUCAUUUCUUACAACAUGAGGAUCACCCAUGUAGAAGGUGCAACAA [Ex2 #5] (Eterna round: R97, puzzle: Exclusion 2)”: the “apparent KD of MS2 coat protein” value runs as follows: (input ligand: FMN 200 uM) 80.4 nM; (input ligand: none) 24.5 nM.
For the sequence “AAAAAACAAGGAUAUACAAAAAAAAAAUGUGAUAAAAAACCACAUGAGGAUCACCCAUGUAGAAGGUGUAAAAA [JR_Exclusion2_Sub003] (puzzle: Exclusion 2)”, the “apparent KD of MS2 coat protein” value runs as follows: under setting [1], 55.6 nM; under setting [2], 62.8 nM; under setting [3], 65 nM.
Regarding “GCACGGAGUGUAGGAUAUCUGUGCGAUUAGCUCAGAGAAGGACACAUGAGGAUCACCCAUGUGUAUCAACACAAUAAUCCGUGC [Eli exng1 - 071] (Eterna round: R96, puzzle: Exclusion NG 1)”, the “apparent KD of MS2 coat protein” value turned out to be 14.8 nM (input ligand: FMN 200 uM), 13.1 nM under setting [4] and 14.5 nM (input ligand: none).
Regarding “UAGAUACAUGAGGAUCACCCAUGUGAGGAUAUGAAUAAGAAUAGAUAAGAUAGUAGAAUCAGAAGGCACAAUGG [Starry Exclusion 1.2] (puzzle: Exclusion 1)”, the “apparent KD of MS2 coat protein” value amounted to 70.1 nM under setting [1], 47.4 nM under setting [2] and 51.8 nM under setting [3].
For the sequence “CUAAAUCAUGUAGGAUAUGCGUGGCGAAGCUAUGCAGAAGGACAUGAGGAUCACCCAUGUGCUUCCGUCUGCGUACAGACGGUA [JL ENG1 1.16] (Eterna round: R96, puzzle: Exclusion NG 1)”, the “apparent KD of MS2 coat protein” value runs as follows: (input ligand: FMN 200 uM) 136 nM; under setting [4], 59.7 nM; (input ligand: none) 83.3 nM.
Consider “AAGUACCGUCACGAUAGUGAUGGUACAACAAGCAAAUAUACAUGAGGAUCACCCAUGUCCUCUUUUGCUCGUCUUGU [Sensor 3] (puzzle: Sensor v3, turn-off variant 2)”, for which the “apparent KD of MS2 coat protein” value amounted to 798 nM under setting [1], 237 nM under setting [2] and 900 nM under setting [3].
As to “GUGUACGCAGGAUAUACAUGAGGAUCACCCAUGUGAAUAAGAUAGAAUAAGAUAAAGUGUAGAAGGGCGAGUGU [Excluse me!!! 5 - Jieux - Exclusion 3] (puzzle: Exclusion 3)”, under setting [2], the “apparent KD of MS2 coat protein” value amounted to 28.3 nM.
With “GUCACAUGGACAUAGGAUCACAUGAGGAUCACCCAUGUGACUAACAAGCUUUUUGCUCGUCUUAUGUCUAUGUGAAA [Stov1/16-A1] (Eterna round: R97, puzzle: Sensor, turn-off variant 1)”, the “apparent KD of MS2 coat protein” value runs as follows: (input ligand: FMN 200 uM) 12.8 nM; (input ligand: none) 12 nM.
Turning to “GUGGAACAUGAGGAUCACCCAUGUGAGGAUAUGUGUGAAUAGAGGAGAAGAAGAGAGAACAGAAGGCACGGAGG [JR_Exclu1_Sub066] (puzzle: Exclusion 1)”, the “apparent KD of MS2 coat protein” value is, setting by setting: under setting [1], 53.3 nM; under setting [2], 73.4 nM; under setting [3], 93.3 nM.
Take “AAUGUUUGAUACCUUUAAUACAUGAGGAUCACCCAUGUUAUCGAGGAUAUGUAGAAGAGAUGAGAACAGAAGGCGAAGUAAGAG [JR_ExcNG3_Sub097] (Eterna round: R96, puzzle: Exclusion NG 3)”: the “apparent KD of MS2 coat protein” value is, setting by setting: (input ligand: FMN 200 uM) 29.5 nM; under setting [4], 10.5 nM; (input ligand: none) 15.1 nM.
As to “ACGAAACAUGAGGAUCACCCAUGUGAGGAUAUGUAAAUAGUAAACAAAUAAGAAAUAAACAGAAGGCACACAGG [JR_Exclusion1_Sub004] (Eterna round: R96, puzzle: Exclusion 1)”, under setting [4], the “apparent KD of MS2 coat protein” value is 24.3 nM.
As to “AGUCGGCGAGGAUAUACAUGAGGAUCACCCAUGUGAGAGAAUAAAGUGAGUUAGACAAGUAGAAGGCGCUGACA [JL Lego Mod 10] (Eterna round: R96, puzzle: Exclusion 3)”, the “apparent KD of MS2 coat protein” value runs as follows: (input ligand: FMN 200 uM) 356 nM; under setting [4], 40.9 nM; (input ligand: none) 48.1 nM.
Turning to “AGCUGUGGCCGAGGAUAUCACAUGAGGAUCACCCAUGUACAUGAUUAGGCCUGGUAACAGGCUCGUGAGAAGGCGGUCUCAGCA [Eli eng2 - 010] (Eterna round: R96, puzzle: Exclusion NG 2)”, the “apparent KD of MS2 coat protein” value by setting is: (input ligand: FMN 200 uM) 26.7 nM; under setting [4], 31.1 nM; (input ligand: none) 37.6 nM.
As to “AAUUAGUGAGGAUAUUCGAGCAGUGGCAGUAGCCAGUGCAUGAAGAAGGCACAUGAGGAUCACCCAUGUUAUAA [EX4 #60] (Eterna round: R97, puzzle: Exclusion 4)”, the “apparent KD of MS2 coat protein” value reads like this: (input ligand: FMN 200 uM) 53.4 nM; (input ligand: none) 28.4 nM.
As to “CCAUGUUAGCAGGAUAUGCAAUUAUUCUUUUAAGCAGAAGGGCUUACAUGAGGAUCACCCAUGUAACAUUUCAU [JR_E6_Sub081] (puzzle: Exclusion 6)”, under setting [2], the “apparent KD of MS2 coat protein” value was determined as 17.3 nM.
Still for that read-out and setting: for “GGUUAUUGCAAGGAUAUGCUAUUAUUUUAUUUUGCAGAAGGUGCAACAUGAGGAUCACCCAUGUUGGAGGGUUU [JR_E6_Sub024] (puzzle: Exclusion 6)” the value was 17.9 nM.
In the case of “ACAUGAGGAUCACCCAUGUGAACAUGAUGGCUGAUGUAGAGCUAGGAUAUGAGUGAAUAUCUAUCUCAGAAGGAGCUUGACUGG [Deportation 47 - Jieux - Exclusion NG 3] (Eterna round: R96, puzzle: Exclusion NG 3)”, the “apparent KD of MS2 coat protein” value amounted to 34.1 nM (input ligand: FMN 200 uM), 14.1 nM under setting [4] and 23.2 nM (input ligand: none).
In the case of “GUGUAGAUAGGAUAUGCUUUGAGCUUAUGAGAGUAUGCUCGACAUGAGGAUCACCCAUGUAGAAGGGUUUACAC [LRO-Excl2-04] (puzzle: Exclusion 2)”, under setting [2], the “apparent KD of MS2 coat protein” value is 68.5 nM.
Regarding “AAAGUUGCCUACGGUGUGCACAUGAGGAUCACCCAUGUACCUCCAUGGCAGUGCCAAUAAUUAUGCUCGUCACUACA [Eternabot (L1) Solution 18] (Eterna round: R97, puzzle: Sensor, turn-off variant 1)”, the “apparent KD of MS2 coat protein” value stood at 14.9 nM (input ligand: FMN 200 uM) and 14.2 nM (input ligand: none).
“GUAUACGAUGAGGAUAUAUGAUAUCAAAGCAUCAUAGAAGGCAUCACAUGAGGAUCACCCAUGUGAUCUUCUUG [Mat - Exclusion 6 - JL Mod - D33] (Eterna round: R97, puzzle: Exclusion 6)”: the “apparent KD of MS2 coat protein” value came out at 141 nM (input ligand: FMN 200 uM) and 31.3 nM (input ligand: none).
As to “GUCAGCUCGUCAGGAUAUACAUCACUGCUUCGGCAGUGUAUUAAGAUCACAUGAGGAUCACCCAUGUAGAAGGGACGAGCUGAU [ENG2/2-B2] (Eterna round: R96, puzzle: Exclusion NG 2)”, the “apparent KD of MS2 coat protein” value came to 322 nM (input ligand: FMN 200 uM), 18.4 nM under setting [4] and 25.8 nM (input ligand: none).
In the case of “GGUCGAAGUGUGAGGAUAUGCUGGUCCUUGGAUCAGCAGAAGGCACAUGAGGAUCACCCAUGUGGUAAACGACC [Mat - Exclusion 4 - Eli Mod - D34] (Eterna round: R97, puzzle: Brourd's mod of Exclusion 4)”, the “apparent KD of MS2 coat protein” value is, setting by setting: (input ligand: FMN 200 uM) 982 nM; (input ligand: none) 171 nM.
